These results are taken from PMC10786891, “Massively parallel profiling of RNA-targeting CRISPR-Cas13d”.

B1: target 1 MT 5'PFS UGC 3'PFS CCG (mixed)
RNA 1: CACCCGUGCAAAAAUGCAGGGGUCUAAAACUGAGCGGAUAACCUCUCUAUGG
RNA 2: GGGAAUGGAUCCACAUCUACGAAUUCUGCCCAUAGAGAGGUUAUCCGCUCACCGAGAUCGGAAGAGCACACGU
B2: target 1 MT 5'PFS GAC 3'PFS AGA (mixed)
RNA 1: B1 RNA 1
RNA 2: B1 RNA 2 with U27G, G28A, C52A, C53G, G54A
B3: target 1 MT 5'PFS ACA 3'PFS UGA (mixed)
RNA 1: B1 RNA 1
RNA 2: B1 RNA 2 with U27A, G28C, C29A, C52U, C53G, G54A
B4: target 1 MT 5'PFS GUA 3'PFS CGG (mixed)
RNA 1: B1 RNA 1
RNA 2: B1 RNA 2 with U27G, G28U, C29A, C53G
B5: target 1 MT 5'PFS GUA 3'PFS CGA (mixed)
RNA 1: B1 RNA 1
RNA 2: B1 RNA 2 with U27G, G28U, C29A, C53G, G54A
B6: target 1 MT 5'PFS GGG 3'PFS AAC (mixed)
RNA 1: B1 RNA 1
RNA 2: B1 RNA 2 with U27G, C29G, C52A, C53A, G54C
B7: target 1 MT 5'PFS GGC 3'PFS UAU (mixed)
RNA 1: B1 RNA 1
RNA 2: B1 RNA 2 with U27G, C52U, C53A, G54U
B8: target 1 MT 5'PFS GUA 3'PFS CGC (mixed)
RNA 1: B1 RNA 1
RNA 2: B1 RNA 2 with U27G, G28U, C29A, C53G, G54C
B9: target 1 MT 5'PFS GUA 3'PFS AGC (mixed)
RNA 1: B1 RNA 1
RNA 2: B1 RNA 2 with U27G, G28U, C29A, C52A, C53G, G54C
B10: target 1 MT 5'PFS GUA 3'PFS AGU (mixed)
RNA 1: B1 RNA 1
RNA 2: B1 RNA 2 with U27G, G28U, C29A, C52A, C53G, G54U
B11: target 1 MT 5'PFS GGC 3'PFS UAG (mixed)
RNA 1: B1 RNA 1
RNA 2: B1 RNA 2 with U27G, C52U, C53A
B12: target 1 MT 5'PFS GUA 3'PFS AGA (mixed)
RNA 1: B1 RNA 1
RNA 2: B1 RNA 2 with U27G, G28U, C29A, C52A, C53G, G54A
B13: target 1 MT 5'PFS ACA 3'PFS UGU (mixed)
RNA 1: B1 RNA 1
RNA 2: B1 RNA 2 with U27A, G28C, C29A, C52U, C53G, G54U
B14: target 1 MT 5'PFS GAC 3'PFS AGC (mixed)
RNA 1: B1 RNA 1
RNA 2: B1 RNA 2 with U27G, G28A, C52A, C53G, G54C
B15: target 1 complement block 6-12 (mixed)
RNA 1: B1 RNA 1
RNA 2: GGGAAUGGAUCCACAUCUACGAAUUCGUACCAUAGAGAGCAAUAGGGCUCACCGAGAUCGGAAGAGCACACGU
B16: target 1 MT 5'PFS GCU 3'PFS GCU (mixed)
RNA 1: B1 RNA 1
RNA 2: B1 RNA 2 with U27G, G28C, C29U, C52G, G54U
B17: target 1 MT 5'PFS CUU 3'PFS ACA (mixed)
RNA 1: B1 RNA 1
RNA 2: B1 RNA 2 with U27C, G28U, C29U, C52A, G54A
B18: target 1 MT 5'PFS GAA 3'PFS AUU (mixed)
RNA 1: B1 RNA 1
RNA 2: B1 RNA 2 with U27G, G28A, C29A, C52A, C53U, G54U
B19: target 1 MT 5'PFS GGG 3'PFS AAG (mixed)
RNA 1: B1 RNA 1
RNA 2: B1 RNA 2 with U27G, C29G, C52A, C53A
B20: target 1 MT 5'PFS CCU 3'PFS UAU (mixed)
RNA 1: B1 RNA 1
RNA 2: B1 RNA 2 with U27C, G28C, C29U, C52U, C53A, G54U
B21: target 1 MT 5'PFS GUC 3'PFS UUA (mixed)
RNA 1: B1 RNA 1
RNA 2: B1 RNA 2 with U27G, G28U, C52U, C53U, G54A
B22: target 1 MT 5'PFS CUU 3'PFS ACU (mixed)
RNA 1: B1 RNA 1
RNA 2: B1 RNA 2 with U27C, G28U, C29U, C52A, G54U
B23: target 1 MT 5'PFS UUG 3'PFS CAU (mixed)
RNA 1: B1 RNA 1
RNA 2: B1 RNA 2 with G28U, C29G, C53A, G54U
B24: target 1 MT 5'PFS GGC 3'PFS UAC (mixed)
RNA 1: B1 RNA 1
RNA 2: B1 RNA 2 with U27G, C52U, C53A, G54C
B25: target 1 MT 5'PFS GGC 3'PFS UAA (mixed)
RNA 1: B1 RNA 1
RNA 2: B1 RNA 2 with U27G, C52U, C53A, G54A
B26: target 1 MT 5'PFS UUG 3'PFS ACU (mixed)
RNA 1: B1 RNA 1
RNA 2: B1 RNA 2 with G28U, C29G, C52A, G54U
B27: target 1 C6G,G13A (mixed)
RNA 1: B1 RNA 1
RNA 2: B1 RNA 2 with U27G, G28U, C29A, G39A, C46G
B28: target 1 MT 5'PFS GAA 3'PFS AUC (mixed)
RNA 1: B1 RNA 1
RNA 2: B1 RNA 2 with U27G, G28A, C29A, C52A, C53U, G54C
B29: target 1 MT 5'PFS GUA 3'PFS CGU (mixed)
RNA 1: B1 RNA 1
RNA 2: B1 RNA 2 with U27G, G28U, C29A, C53G, G54U
B30: target 1 G15C,A16C (mixed)
RNA 1: B1 RNA 1
RNA 2: B1 RNA 2 with U27G, G28U, C29A, A36C, G37C
B31: target 1 MT 5'PFS GUA 3'PFS AGG (mixed)
RNA 1: B1 RNA 1
RNA 2: B1 RNA 2 with U27G, G28U, C29A, C52A, C53G
B32: target 1 MT 5'PFS UGU 3'PFS CGA (mixed)
RNA 1: B1 RNA 1
RNA 2: B1 RNA 2 with C29U, C53G, G54A
B33: target 1 MT 5'PFS CCU 3'PFS UAG (mixed)
RNA 1: B1 RNA 1
RNA 2: B1 RNA 2 with U27C, G28C, C29U, C52U, C53A
B34: target 1 MT 5'PFS CUC 3'PFS UCG (mixed)
RNA 1: B1 RNA 1
RNA 2: B1 RNA 2 with U27C, G28U, C52U
B35: target 1 MT 5'PFS CAA 3'PFS AGU (mixed)
RNA 1: B1 RNA 1
RNA 2: B1 RNA 2 with U27C, G28A, C29A, C52A, C53G, G54U
B36: target 1 MT 5'PFS CCU 3'PFS UAC (mixed)
RNA 1: B1 RNA 1
RNA 2: B1 RNA 2 with U27C, G28C, C29U, C52U, C53A, G54C
B37: target 1 MT 5'PFS CUC 3'PFS UCA (mixed)
RNA 1: B1 RNA 1
RNA 2: B1 RNA 2 with U27C, G28U, C52U, G54A
B38: target 1 MT 5'PFS GAC 3'PFS AGU (mixed)
RNA 1: B1 RNA 1
RNA 2: B1 RNA 2 with U27G, G28A, C52A, C53G, G54U

Substitutions are numbered along the chain they refer to. In names and notes the source's numbering stands.

In the data set the target is T1, EsCas13d, nuclease-dead (Eubacterium siraeum, UniProt B0MS50, R295A;H300A;R849A;H854A).
T1 sequence: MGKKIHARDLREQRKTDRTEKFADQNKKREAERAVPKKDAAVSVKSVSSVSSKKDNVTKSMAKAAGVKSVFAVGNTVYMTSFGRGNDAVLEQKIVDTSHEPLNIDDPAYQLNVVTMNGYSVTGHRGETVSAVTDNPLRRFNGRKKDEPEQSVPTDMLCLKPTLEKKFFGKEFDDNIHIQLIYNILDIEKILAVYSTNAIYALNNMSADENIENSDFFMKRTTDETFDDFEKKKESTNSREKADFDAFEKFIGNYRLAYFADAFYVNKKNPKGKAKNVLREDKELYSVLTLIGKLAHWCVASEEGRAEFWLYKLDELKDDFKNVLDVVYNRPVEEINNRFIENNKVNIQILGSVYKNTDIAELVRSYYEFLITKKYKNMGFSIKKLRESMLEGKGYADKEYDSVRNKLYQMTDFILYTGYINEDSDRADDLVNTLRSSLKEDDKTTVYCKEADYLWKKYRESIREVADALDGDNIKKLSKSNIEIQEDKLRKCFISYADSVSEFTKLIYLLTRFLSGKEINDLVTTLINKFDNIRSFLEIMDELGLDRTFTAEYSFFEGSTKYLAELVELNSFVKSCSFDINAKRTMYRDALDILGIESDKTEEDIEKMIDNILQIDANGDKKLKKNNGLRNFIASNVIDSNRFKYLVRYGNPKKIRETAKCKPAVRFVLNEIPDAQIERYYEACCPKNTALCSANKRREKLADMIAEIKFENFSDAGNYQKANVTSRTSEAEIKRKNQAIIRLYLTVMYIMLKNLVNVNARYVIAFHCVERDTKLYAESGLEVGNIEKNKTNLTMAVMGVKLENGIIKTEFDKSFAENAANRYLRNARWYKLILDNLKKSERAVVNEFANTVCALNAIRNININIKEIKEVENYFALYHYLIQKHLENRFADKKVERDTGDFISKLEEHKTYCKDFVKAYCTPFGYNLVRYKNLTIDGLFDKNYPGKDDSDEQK
Put plainly: crRNA (strand 1, pre-loaded); Mg2+; 40 mM Tris-HCl pH 7.5, 150 mM NaCl, 6 mM MgCl2, 1 mM DTT, 0.1% Tween-20, 0.2 mg/ml BSA; 25 C; 10 min per concentration, then washed. As to conditions: tags: His6-TwinStrep-SUMO cleaved; N-terminal SNAP kept (SNAP-Surface 488); label: 3' end held by stalled T7 RNA polymerase.
For B1, the Kd came to 11.8 ± 3.85 nM. As to B2, binding was characterised by a dissociation constant (Kd) of 28 ± 14 nM. Then B3, with 15.5 ± 4.5 nM; and B4, with 15.2 ± 1.15 nM; and B5, with 17.8 ± 2.55 nM. B6 gave an equilibrium dissociation constant (Kd) of 35.5 ± 8.5 nM. This Kd is about 2-fold higher than that of the molecule before. The molecule B7 came in with a Kd of 16 ± 4 nM. Then B8, with 11.2 ± 1.15 nM; and B9, with 6.27 ± 0.515 nM. In turn, B10 had a Kd of 9.9 ± 0.8 nM. The value for B11 was 13.4 ± 1.8 nM; that for B12 was 12.7 ± 0.8 nM; that for B13 was 45 ± 12 nM.

As to B14, the Kd turned out to be 13.6 ± 2.6 nM.

With B15, the Kd was found to be 16.7 ± 1 nM.

B16 showed an equilibrium dissociation constant (Kd) of 17 ± 5 nM. Molecule B17 yielded a dissociation constant (Kd) of around 65.5 nM. The value for B18 was 24.5 ± 8.5 nM; that for B19 was 23.9 ± 3.25 nM.

Regarding B20, the Kd was around 15 nM. Molecule B21 showed a Kd of 12.2 ± 2.45 nM. The molecule B22 came in with a Kd of 29.5 ± 10.5 nM. This Kd lies about 2.4-fold higher than the previous one.

Take B23: binding was characterised by a dissociation constant (Kd) of 41 ± 13.5 nM.

B24 gave a Kd of 19 ± 5 nM. Then B25, with 20.9 ± 3.75 nM. Consider B26, for which the Kd is 21 ± 5 nM. B27 displayed a dissociation constant (Kd) of 10.1 ± 0.7 nM. The molecule B28 registered an equilibrium dissociation constant (Kd) of 43 ± 15 nM. Compared with the last molecule, the Kd is about 4.3-fold higher. Then B29, with 5.66 ± 0.48 nM; and B30, with around 90 nM. In turn, B31 returned a Kd of 22.9 ± 1.4 nM. Then B32, with 60 ± 28.5 nM; and B33, with 28 ± 11 nM. For B34, the dissociation constant Kd is around 85 nM. The value for B35 was around 52 nM; that for B36 was 13.4 ± 2.7 nM. B37 yielded an equilibrium dissociation constant (Kd) of around 26 nM. Then B38, with 35.5 ± 10.5 nM.

As a reminder, the Kd is a measure of binding affinity in units of concentration. Read a high Kd as weaker binding.
